One series addresses T1, KBL-1 (Stenotrophomonas maltophilia, UniProt A0A7I8E9L1).
T1 construct: gene blaKBL-1; full length 286 residues; expressed without signal peptide in E. coli BL21-CodonPlus (pET28a); His-tag removed by TEV
In words: penicillin G hydrolysis, UV spectrophotometry. In kind it is biochemical.

Series [1] deals with CCN1CCN(C(=O)N[C@@H](C(=O)N[C@@H]2C(=O)N3[C@@H]2SC(C)(C)[C@@H]3C(=O)O)c2ccccc2)C(=O)C1=O. In words: initial rate of hydrolysis, UV spectrophotometry, Lineweaver-Burk. It is filed as biochemical, Stenotrophomonas maltophilia. The settings on record: 37°C, 50 mM Tris-HCl pH 7.4, 0.3 M NaCl. From the text: (§1) initial rate of hydrolysis, UV spectrophotometry, Lineweaver-Burk on KBL-1

The test system of series [2] is CO[C@@]1(NC(=O)Cc2cccs2)C(=O)N2C(C(=O)O)=C(COC(N)=O)CS[C@@H]21. Described as above. The settings on record: 37°C, 50 mM Tris-HCl pH 7.4, 0.3 M NaCl. It is filed as biochemical, Stenotrophomonas maltophilia.
Source text: as §1

In series [3] the test system is C[C@@H](O)[C@H]1C(=O)N2C(C(=O)O)=C(SCCN=CN)C[C@H]12. The description is as above. In kind it is biochemical, Stenotrophomonas maltophilia. The settings on record: 37°C, 50 mM Tris-HCl pH 7.4, 0.3 M NaCl.
Source text: as §1

The subject of series [4] is CC1(C)S[C@@H]2[C@H](NC(=O)[C@H](N)c3ccccc3)C(=O)N2[C@H]1C(=O)O. The description is as above. It is filed as biochemical, Stenotrophomonas maltophilia. The settings on record: 37°C, 50 mM Tris-HCl pH 7.4, 0.3 M NaCl.
Source text: as §1

Series [5] relates to CO[C@@]1(NC(=O)C(C(=O)O)c2ccc(O)cc2)C(=O)N2C(C(=O)O)=C(CSc3nnnn3C)CO[C@@H]21. Described as above. It is filed as biochemical, Stenotrophomonas maltophilia. The settings on record: 37°C, 50 mM Tris-HCl pH 7.4, 0.3 M NaCl.
Source text: as §1

For series [6], the system named is C[C@@H](O)[C@H]1C(=O)N2C(C(=O)O)=C(S[C@@H]3CN[C@H](C(=O)N(C)C)C3)[C@H](C)[C@H]12. Described as above. In kind it is biochemical, Stenotrophomonas maltophilia. The settings on record: 37°C, 50 mM Tris-HCl pH 7.4, 0.3 M NaCl.
Source text: as §1

In series [7] the test system is CC1(C)S[C@@H]2[C@H](NC(=O)Cc3ccccc3)C(=O)N2[C@H]1C(=O)O. The description is as above. The settings on record: 37°C, 50 mM Tris-HCl pH 7.4, 0.3 M NaCl. In kind it is biochemical, Stenotrophomonas maltophilia.
Source text: as §1

The subject of series [8] is CO/N=C(\C(=O)N[C@@H]1C(=O)N2C(C(=O)O)=C(COC(C)=O)CS[C@H]12)c1csc(N)n1. The series is described as above. The settings on record: 37°C, 50 mM Tris-HCl pH 7.4, 0.3 M NaCl. It is filed as biochemical, Stenotrophomonas maltophilia.
Source text: as §1

Series [9] concerns CC1=C(C(=O)O)N2C(=O)[C@@H](NC(=O)[C@H](N)C3=CCC=CC3)[C@H]2SC1. The series is described as above. In kind it is biochemical, Stenotrophomonas maltophilia. The settings on record: 37°C, 50 mM Tris-HCl pH 7.4, 0.3 M NaCl.
Source text: as §1

Series [10] deals with CO/N=C(\C(=O)N[C@@H]1C(=O)N2C(C(=O)[O-])=C(C[N+]3(C)CCCC3)CS[C@H]12)c1csc(N)n1. The description is as above. It is filed as biochemical, Stenotrophomonas maltophilia. The settings on record: 37°C, 50 mM Tris-HCl pH 7.4, 0.3 M NaCl.
Source text: as §1

Series [11] concerns CC(C)(O/N=C(\C(=O)N[C@@H]1C(=O)N2C(C(=O)[O-])=C(C[n+]3ccccc3)CS[C@H]12)c1csc(N)n1)C(=O)O. The series is described as above. It is filed as biochemical, Stenotrophomonas maltophilia. The settings on record: 37°C, 50 mM Tris-HCl pH 7.4, 0.3 M NaCl.
Source text: as §1

In series [12] the test system is CC1(C)S[C@@H]2[C@H](NC(=O)[C@H](N)c3ccc(O)cc3)C(=O)N2[C@H]1C(=O)O. The series is described as above. It is filed as biochemical, Stenotrophomonas maltophilia. The settings on record: 37°C, 50 mM Tris-HCl pH 7.4, 0.3 M NaCl.
Source text: as §1

T1 sequence (A0A7I8E9L1 entry or part of it): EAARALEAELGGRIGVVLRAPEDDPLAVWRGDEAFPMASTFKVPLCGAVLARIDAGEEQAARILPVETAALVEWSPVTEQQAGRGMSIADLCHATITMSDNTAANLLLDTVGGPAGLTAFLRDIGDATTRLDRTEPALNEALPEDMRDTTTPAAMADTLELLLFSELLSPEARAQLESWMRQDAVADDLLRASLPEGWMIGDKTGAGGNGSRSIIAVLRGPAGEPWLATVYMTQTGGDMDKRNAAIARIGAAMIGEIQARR

For the molecule `O=C(O)[C@H]1/C(=C/CO)O[C@@H]2CC(=O)N21` [clavulanic acid], on KBL-1, 210 nM corresponded to half-maximal inhibition (IC50).
With `CC1(C)[C@H](C(=O)O)N2C(=O)C[C@H]2S1(=O)=O` [sulbactam], the concentration for half-maximal inhibition (IC50) on KBL-1 was 1200 nM.
Turning to KBL-1 (Stenotrophomonas maltophilia), the Michaelis-Menten constant (Km) in [1] came to 52 ± 7 µM; in series [2], 57 ± 6 µM; in [3], 85 ± 7 µM; in [4], 37 ± 8 µM; in series [5] it was 49 ± 4 µM; in series [6], 39 ± 6 µM. Besides, the Km in series [7] was determined as 21 ± 5 µM; in series [8] it was 31 ± 5 µM; in series [9], 605 ± 45 µM; in series [10] it was 79 ± 2 µM; in [11] it was 45 ± 12 µM; in series [12], 23 ± 4 µM. Further, the kcat in series [1] amounted to 22 ± 1 s⁻¹; in [2] it was 0.032 ± 0.002 s⁻¹; in series [3], 1.13 ± 0.143 s⁻¹; in [4] it was 19 ± 1 s⁻¹; in series [5] it was 0.392 ± 0.009 s⁻¹; in series [6] it was 0.443 ± 0.056 s⁻¹. In addition, the turnover number (kcat) in series [7] amounted to 24 ± 2 s⁻¹; in series [8] it was 1.33 ± 0.053 s⁻¹; in series [9] it was 2.23 ± 0.13 s⁻¹; in series [10], 0.751 ± 0.029 s⁻¹; in series [11] it was 0.013 ± 0.003 s⁻¹; in [12] it was 10 ± 0.4 s⁻¹. In addition, the kcat/Km worked out at 422000 M⁻¹ s⁻¹ in series [1]; 1000 M⁻¹ s⁻¹ in series [2]; 13000 M⁻¹ s⁻¹ in series [3]; 532000 M⁻¹ s⁻¹ in series [4]; 8000 M⁻¹ s⁻¹ in series [5]; 11000 M⁻¹ s⁻¹ in series [6]. Further, the specificity constant (kcat/Km) was found to be 1.17e+06 M⁻¹ s⁻¹ in [7]; 44000 M⁻¹ s⁻¹ in series [8]; 4000 M⁻¹ s⁻¹ in [9]; 10000 M⁻¹ s⁻¹ in [10]; 300 M⁻¹ s⁻¹ in series [11]; 455000 M⁻¹ s⁻¹ in [12].

Values taken from publication PMC9431274, “Stenotrophomonas maltophilia from Nepal Producing Two Novel Antibiotic Inactivating Enzymes, a Class A β-Lactamase KBL-1 and an Aminoglycoside 6′-N-Acetyltransferase AAC(6′)-Iap” (Microbiology Spectrum, 2022).
